In patent US20140327158A1 (E3X BIO, published 2014):

Molecular target: T1, HA-UbVS (HA-tagged ubiquitin vinyl sulfone activity probe) (UniProt P0CG48 1-75, C-terminal vinyl sulfone (VS) electrophilic trap)
T1 construct: Bought from Boston Biochem. Reacts covalently with the active site cysteine after specific recognition of Ub; also called Ub-vinyl sulfone
Experiment: HA-UbVS activity probe labeling, gel shift
Excerpt: Reactions were terminated by the addition of SDS loading buffer.

B1: Parkin RBR (residues 238-465) (enzyme, UniProt O60260 238-465, looked up)
chain: CITCTDVRSPVLVFQCNSRHVICLDCFHLYCVTRLNDRQFVHDPQLGYSLPCVAGCPNSLIKELHHFRILGEEQYNRYQQYGAEECVLQMGGVLCPRPGCGAGLLPEPDQRKVTCEGGNGLGCGFAFCRECKEAYHEGECSAVFEASGTTTQAYRVDERAAEQARWEAASKETIKKTTKPCPRCHVPVEKNGGCMHMKCPQPQCRLEWCWNCGCEWNRVCMGDHWFDV
notes: range 238-465; also called RBR domain of Parkin
- binding result: binds
